Legend:
[1] = target: T1, human plasma kallikrein (Homo sapiens, UniProt P03952); experiment: Human plasma kallikrein-inhibiting activity, substrate S-2302; format: biochemical; settings: for human plasma kallikrein-inhibiting activity: purified sample, various concentrations, remaining activity vs buffer control (FIG. 17A-C)
T1 construct: purchased Sigma Chemical Co
Method: The purified sample obtained in Example 1-(5) was dissolved in 100 μl of distilled water. Concentration of this solution was determined based on its bovine trypsin-inhibiting activity using the aforementioned UTI as a standard. The solution was then diluted to various concentration levels with 0.1% BSA/150 mM NaCl/50 mM Tris-HCl buffer (pH 8.3) for use in the activity measurement. The UTI was also diluted in the same manner. Using a synthetic compound S-2302 (Daiichi Pure Chemicals Co., Ltd.) as a substrate, human plasma kallikrein-inhibiting activities of the diluted test samples and the positive control were measured in accordance with the method of Ohno et al. (Ohno,H. et al., Thromb. Res., vol.19, pp.579-588, 1980) as follows.
0.26 U/ml solution of human plasma kallikrein (Sigma Chemical Co.) was diluted with 0.1% BSA/150 mM NaCl/50 mM Tris-HCl buffer (pH 8.3) to prepare 0.08 U/ml of plasma kallikrein solution. 4 mM solution of S-2302 was prepared by dissolving it in distilled water and the solution was further diluted with 0.1% BSA/150 mM NaCl/50 mM Tris-HCl buffer (pH 8.3) to prepare 2 mM solution of S-2302.
Next, 25 μl of the test sample or positive control was mixed with 75 μl of 0.1% BSA/150 mM NaCl/50 mM Tris-HCl buffer (pH 8.3) and 50 μl of the plasma kallikrein solution. After incubation at 37° C. for 10 minutes, 50 μl of the S-2302 solution was added to the mixture to start the reaction. The reaction was carried out at 37° C. for 8 minutes and then stopped by adding 25 μl of 50% acetic acid solution to the reaction mixture. Thereafter, absorbance at 405 nm was measured using a spectrophotometer.
In this instance, in order to eliminate absorbance of various solutions in the reaction mixture a blank solution was prepared by mixing 50 μl of the plasma kallikrein solution with 25 μl of 50% acetic acid and then with 25 μl of each test sample or the positive control, 75 μl of 0.1% BSA/150 mM NaCl/50 mM Tris-HCl buffer (pH 8.3) and with 50 μl of the S-2302 solution.
In this figure, human plasma kallikrein remaining activity was expressed by percentage based on the absorbance of a control reaction mixture in which 25 μl of 0.1% BSA/150 mM NaCl/50 mM Tris-HCl buffer (pH 8.3) was used instead of the test sample or the positive control.

[2] = target: T2, Human trypsin (Homo sapiens, UniProt P07477); experiment: Human trypsin-inhibiting activity, substrate S-2444; format: biochemical; settings: purified sample, various concentrations; remaining activity vs buffer control (FIG. 14A-C)
T2 construct: purchased Calbiochem
Method: The purified sample obtained in Example 1-(5) was dissolved in 100 μl of distilled water. Concentration of this solution was determined based on its bovine trypsin-inhibiting activity using the aforementioned UTI as a standard. The solution was then diluted to various concentration levels with 0.1% BSA/0.2M triethanolamine-HCl buffer (pH 7.8) for the activity measurement. The aforementioned UTI was also diluted in the same manner.
Using the aforementioned synthetic compound S-2444 as a substrate, human trypsin-inhibiting activities of the diluted test samples and the positive control were measured in accordance with the method of Kassell (Kassell B., Methods in Enzymol., vol 19, pp.84-852, 1970) as follows.
Human trypsin (Calbiochem) was dissolved in 0.001M HCl to a concentration of 1,000 SU/ml and the solution was further diluted with 0.1% BSA/0.2M triethanolamine-HCl buffer (pH 7.8) to prepare 1.25 SU/ml of trypsin solution. 2 mM solution of S-2444 was prepared by dissolving it in distilled water.
Next, 100 μl of the test sample or positive control was mixed with 100 μl of the trypsin solution. After incubation at 37° C. for 10 minutes, 50 μl of the S-2444 solution was added to the mixture to start the reaction. The reaction was carried out at 37° C. for 20 minutes and then stopped by adding 50 μl of 50% acetic acid solution to the reaction mixture. Thereafter, absorbance at 405 nm was measured using a spectrophotometer.
In this instance, in order to eliminate absorbance of various solutions in the reaction mixture, a blank solution was prepared by mixing 100 μl of the trypsin solution with 50 μl of 50% acetic acid and then with 100 μl of each test sample or the positive control and with 50 μl of the S-2444 solution.
In this figure, human trypsin remaining activity was expressed by percentage based on the absorbance of a control reaction mixture in which 100 μl of 0.1% BSA/0.2M triethanolamine-HCl buffer (pH 7.8) was used instead of the test sample or the positive control.

T1 sequence (P03952 20-638): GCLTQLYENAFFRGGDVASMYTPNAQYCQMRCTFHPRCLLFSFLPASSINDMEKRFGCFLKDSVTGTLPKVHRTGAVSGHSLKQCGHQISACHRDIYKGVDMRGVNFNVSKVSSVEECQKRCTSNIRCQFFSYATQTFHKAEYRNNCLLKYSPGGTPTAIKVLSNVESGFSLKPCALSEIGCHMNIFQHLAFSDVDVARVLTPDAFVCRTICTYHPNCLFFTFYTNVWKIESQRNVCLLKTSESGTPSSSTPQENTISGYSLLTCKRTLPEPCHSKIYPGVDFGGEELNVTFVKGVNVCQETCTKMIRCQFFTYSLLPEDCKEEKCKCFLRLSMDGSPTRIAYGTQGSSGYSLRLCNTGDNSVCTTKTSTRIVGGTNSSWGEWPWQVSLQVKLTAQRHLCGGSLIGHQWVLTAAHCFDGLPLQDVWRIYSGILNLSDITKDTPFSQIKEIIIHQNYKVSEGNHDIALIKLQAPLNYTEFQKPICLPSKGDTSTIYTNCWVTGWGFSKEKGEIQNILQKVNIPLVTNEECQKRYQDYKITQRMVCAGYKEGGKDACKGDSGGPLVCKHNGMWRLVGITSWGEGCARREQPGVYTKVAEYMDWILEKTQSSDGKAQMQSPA

human plasma kallikrein-inhibiting activity [1] | human trypsin-inhibiting activity [2] | plasma kallikrein-inhibiting activity ([1]; experiments of the inventors, stated in the background) | Molecule
activity was found | activity was found |  | CC51: polypeptide defined by the amino acid sequence of formula 1, purified from culture supernatant of E. coli JE5505 (pM560) (CNLPIVRGPCRAFIQLWAFDAVKGKCVLFPYGGCQGNGNKFYSEKECREYC)
activity was not found | activity was found | no plasma kallikrein-inhibiting activity | UTI: urinary trypsin inhibitor purified from human urine (Mochida Pharmaceutical), used as positive control (protein, glycoprotein (sugar moieties, as the filing says in general of UTI)) AVLPQEEEGSGGGQLVTEVTKKEDSCQLGYSAGPCMGMTSRYFYNGTSMACETFQYGGCMGNGNNFVTEKECLQTCRTVAACNLPIVRGPCRAFIQLWAFDAVKGKCVLFPYGGCQGNGNKFYSEKECREYCGVPGDGDEELLRFSN
activity was found | activity was found |  | TL66: polypeptide defined by formula 8; known enzyme-digested fragment of urinary trypsin inhibitor, made in E. coli JE5505 (pM551) (protein) TVAACNLPIVRGPCRAFIQLWAFDAVKGKCVLFPYGGCQGNGNKFYSEKECREYCGVPGDGDEELL
activity was found | activity was found |  | TN70: polypeptide defined by the amino acid sequence of formula 3, purified from culture supernatant of E. coli JE5505 (pM552) (protein) TVAACNLPIVRGPCRAFIQLWAFDAVKGKCVLFPYGGCQGNGNKFYSEKECREYCGVPGDGDEELLRFSN
